Laboratory results as given in the supplement of paper PMC9112550, “Optimization of the antimicrobial peptide Bac7 by deep mutational scanning” (BMC Biology, 2022).

Tested on: Escherichia coli TOP10
Assay: shrunken log2 fold change of peptide-encoding DNA abundance (4.5 h post-induction vs induction); higher = less antimicrobial activity (less host growth inhibition)
Conditions: time post-induction: 4.5 h; library: site-saturation at positions 5, 18, 19, 20
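Note: peptides expressed intracellularly from a pBAD plasmid library in pooled LB shake-flask culture, induced with 0.3% L-arabinose, DNA abundance read by NGS, three biological replicates, DESeq2 with apeglm shrinkage.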

Sequence	shrunken log2 fold change
RRIRCRPPRLPRPRPRPRDNPRP	2.6
RRIRTRPPRLPRPRPRPCRCPRP	-0.00986
RRIRLRPPRLPRPRPRPKRPPRP	-0.0353
RRIRNRPPRLPRPRPRPGFKPRP	-0.171
RRIRVRPPRLPRPRPRPNFAPRP	0.104
RRIRGRPPRLPRPRPRPQFSPRP	0.0687
RRIRQRPPRLPRPRPRPTTGPRP	0.0143
RRIRGRPPRLPRPRPRPMTYPRP	0.274
RRIRNRPPRLPRPRPRPFYKPRP	-0.575
RRIRNRPPRLPRPRPRPLLMPRP	-0.421
RRIRARPPRLPRPRPRPSQAPRP	0.0359
RRIRYRPPRLPRPRPRPVFMPRP	-0.484
RRIRQRPPRLPRPRPRPPPLPRP	0.977
RRIRLRPPRLPRPRPRPYGIPRP	-0.00489
RRIRHRPPRLPRPRPRPWCHPRP	-0.00107
RRIRVRPPRLPRPRPRPFDFPRP	-0.266
RRIRKRPPRLPRPRPRPVYHPRP	0.0002
RRIRHRPPRLPRPRPRPAITPRP	-0.0845
RRIRMRPPRLPRPRPRPLRFPRP	0.74
RRIRHRPPRLPRPRPRPFMQPRP	-0.348
RRIRQRPPRLPRPRPRPPCQPRP	0.0396
RRIRMRPPRLPRPRPRPWYTPRP	-0.012
RRIRNRPPRLPRPRPRPNFQPRP	-0.0807
RRIRRRPPRLPRPRPRPIHLPRP	-0.0465
RRIRFRPPRLPRPRPRPPHWPRP	0.617

Sequence	shrunken log2 fold change
RRIRTRPPRLPRPRPRPMQLPRP	-0.191
RRIRARPPRLPRPRPRPASTPRP	0.318
RRIRHRPPRLPRPRPRPSKWPRP	-0.452
RRIRHRPPRLPRPRPRPIPFPRP	0.0406
RRIRGRPPRLPRPRPRPYATPRP	1.81
RRIRFRPPRLPRPRPRPWTTPRP	-0.0381
RRIRSRPPRLPRPRPRPCIMPRP	-0.105
RRIRYRPPRLPRPRPRPMKHPRP	-0.495
RRIRHRPPRLPRPRPRPHTCPRP	-0.141
RRIRWRPPRLPRPRPRPEVSPRP	0.269
RRIRIRPPRLPRPRPRPHLRPRP	-0.00802
RRIRRRPPRLPRPRPRPWYEPRP	-0.16
RRIRSRPPRLPRPRPRPLKMPRP	0.127
RRIRPRPPRLPRPRPRPYCRPRP	0.0122
RRIRVRPPRLPRPRPRPCHSPRP	-0.225
RRIRRRPPRLPRPRPRPLQSPRP	0.242
RRIRDRPPRLPRPRPRPGIEPRP	0.103
RRIRLRPPRLPRPRPRPTLTPRP	0.26
RRIRRRPPRLPRPRPRPEHRPRP	0.343
RRIRARPPRLPRPRPRPCTKPRP	0.143
RRIRKRPPRLPRPRPRPAVVPRP	0.0614
RRIRWRPPRLPRPRPRPQLLPRP	0.115
RRIRGRPPRLPRPRPRPRWAPRP	0.702
RRIRCRPPRLPRPRPRPNRMPRP	2.23
RRIRSRPPRLPRPRPRPCVVPRP	-0.266

Sequence	shrunken log2 fold change
RRIRVRPPRLPRPRPRPSKDPRP	-0.563
RRIRKRPPRLPRPRPRPFKNPRP	-0.0646
RRIRVRPPRLPRPRPRPCKDPRP	-0.0644
RRIRWRPPRLPRPRPRPDFKPRP	-0.0843
RRIRYRPPRLPRPRPRPQWQPRP	-0.00114
RRIRTRPPRLPRPRPRPFWKPRP	0.0184
RRIRRRPPRLPRPRPRPQSVPRP	-0.0146
RRIRTRPPRLPRPRPRPAKGPRP	0.0671
RRIRYRPPRLPRPRPRPNSIPRP	-0.737
RRIRMRPPRLPRPRPRPQMPPRP	0.0529
RRIRLRPPRLPRPRPRPWGWPRP	0.264
RRIRWRPPRLPRPRPRPNDRPRP	0.174
RRIRPRPPRLPRPRPRPNAVPRP	0.0397
RRIRDRPPRLPRPRPRPLCEPRP	0.715
RRIRPRPPRLPRPRPRPGFWPRP	0.61
RRIRMRPPRLPRPRPRPPVRPRP	0.458
RRIRQRPPRLPRPRPRPWQNPRP	0.0546
RRIRKRPPRLPRPRPRPQHRPRP	0.148
RRIRSRPPRLPRPRPRPGPNPRP	-0.0665
RRIRARPPRLPRPRPRPFTHPRP	-0.113
RRIRHRPPRLPRPRPRPWICPRP	-0.0191
RRIRYRPPRLPRPRPRPGGWPRP	0.645
RRIRFRPPRLPRPRPRPLATPRP	-0.00506
RRIRYRPPRLPRPRPRPRHQPRP	-0.111
RRIRHRPPRLPRPRPRPHYSPRP	-0.142

Sequence	shrunken log2 fold change
RRIRIRPPRLPRPRPRPQTNPRP	-0.423
RRIRFRPPRLPRPRPRPPSTPRP	0.342
RRIRIRPPRLPRPRPRPGPCPRP	0.255
RRIRFRPPRLPRPRPRPSQVPRP	-0.398
RRIRLRPPRLPRPRPRPLDFPRP	-0.162
RRIRVRPPRLPRPRPRPKPNPRP	0.275
RRIRARPPRLPRPRPRPEMSPRP	0.116
RRIRQRPPRLPRPRPRPYALPRP	-0.0202
RRIRKRPPRLPRPRPRPYTGPRP	-0.318
RRIRIRPPRLPRPRPRPFCNPRP	-0.553
RRIRLRPPRLPRPRPRPLHTPRP	-0.289
RRIRSRPPRLPRPRPRPYNQPRP	-0.642
RRIRMRPPRLPRPRPRPKEMPRP	0.31
RRIRIRPPRLPRPRPRPPVWPRP	0.187
RRIRPRPPRLPRPRPRPIFYPRP	-0.102
RRIRSRPPRLPRPRPRPEHKPRP	-0.156
RRIRLRPPRLPRPRPRPQGYPRP	-0.141
RRIRIRPPRLPRPRPRPDYPPRP	-0.584
RRIRERPPRLPRPRPRPAEMPRP	-0.0352
RRIRRRPPRLPRPRPRPTCGPRP	0.506
RRIRMRPPRLPRPRPRPAHAPRP	1.16
RRIRGRPPRLPRPRPRPNECPRP	0.421
RRIRRRPPRLPRPRPRPVLQPRP	0.0941
RRIRQRPPRLPRPRPRPSRLPRP	0.101
RRIRNRPPRLPRPRPRPLMAPRP	0.176

Sequence	shrunken log2 fold change
RRIRGRPPRLPRPRPRPWCFPRP	0.212
RRIRYRPPRLPRPRPRPHENPRP	-0.212
RRIRFRPPRLPRPRPRPRLMPRP	-0.0982
RRIRQRPPRLPRPRPRPFPYPRP	0.0303
RRIRGRPPRLPRPRPRPSRLPRP	0.204
RRIRARPPRLPRPRPRPWPVPRP	0.558
RRIRLRPPRLPRPRPRPLLPPRP	0.368
RRIRMRPPRLPRPRPRPTMVPRP	0.263
RRIRPRPPRLPRPRPRPYHGPRP	0.0397
RRIRYRPPRLPRPRPRPNEHPRP	-0.268
RRIRFRPPRLPRPRPRPSKHPRP	0.0257
RRIRMRPPRLPRPRPRPEPAPRP	3.51
RRIRTRPPRLPRPRPRPVGNPRP	0.0924
RRIRSRPPRLPRPRPRPGVIPRP	-0.0412
RRIRERPPRLPRPRPRPHMLPRP	-0.376
RRIRQRPPRLPRPRPRPCYKPRP	-0.271
RRIRYRPPRLPRPRPRPWMTPRP	-0.663
RRIRERPPRLPRPRPRPPTCPRP	-0.0707
RRIRGRPPRLPRPRPRPLAHPRP	0.546
RRIRGRPPRLPRPRPRPQPAPRP	0.833
RRIRSRPPRLPRPRPRPDDHPRP	-0.0124
RRIRARPPRLPRPRPRPSQRPRP	0.373
RRIRRRPPRLPRPRPRPNMQPRP	0.183
RRIRQRPPRLPRPRPRPVEHPRP	-0.00992
RRIRRRPPRLPRPRPRPFRCPRP	-0.15
